Measured values from patent US11464867B2, “Multimeric elastin-like polypeptides” (University of Southern California, priority 2018, dated 2022).

Key:
[1] = Phase transition temperature by optical density (UV-Vis, 350 nm) versus temperature; format: physicochemical; details: 25 μM; Table 5
Procedure: The temperature with the maximum positive slope was defined as the phase transition temperature for each condition. (FIG. 2B) The concentration-temperature phase diagram was determined for both ELPs, and fit to the following equation: Tt=b−m Log10[CELP].
Both ELPs at different concentrations (5 μM to 100 μM) were subject to a precisely controlled temperature increase from 25 to 75° C. at a rate of 1° C./min. The Tt of ELPs is defined as the temperature at which the first derivative of the optical density with respect to the temperature reaches a maximum.

[2] = ATRA encapsulation in 4PA, two phase method, HPLC; format: physicochemical; details: theoretical maximum 4
Text: FIG. 21: SDS PAGE was used to resolve the purified 4PA fusion protein. To formulate ATRA-loaded 4PA, a two phase encapsulation method was adopted. After removing undissolved drug, HPLC was used to quantify 4PA and ATRA concentrations. Encapsulation ratio, defined as CATRA/C4PA was 2.7, theoretical maximum being 4.

BT-474 orthotopic tumors = assay: Orthotopic BT-474 tumors in nude mice; format: in vivo; details: 1 mg/kg every other day for 4 weeks
Text: FIGS. 25A-25B: show results of administration of FAF formulations when tested for efficacy and safety in nude mice bearing orthotopic tumors of BT-474 cell line. Oral Eve at the same drug dose served as a clinically relevant control.
Accounting for nearly 40,000 deaths per year, breast cancer is the second deadliest cancer affecting American women. Everolimus (Eve), an analog of Rapamycin is approved to treat HR+/HER2− subtype in combination with exemestane. Currently administered as an oral formulation, Eve suffers from poor physico-chemical properties and toxicity issues like Rapamycin. Novel FAF formulations were tested for efficacy and safety in nude mice bearing orthotopic tumors of BT-474 cell line. Being a HR+ cell line, BT-474 represents nearly 80% of clinically diagnosed breast cancer. Oral Eve at the same drug dose served as a clinically relevant control. […] This is presumably a result of Eve's poor oral bioavailability.

[3] = system: HR+/HER2− breast cancer patients; details: in combination with exemestane; cited from earlier work
male NOD mice = assay: Lymphocytic infiltration of the lacrimal gland in male NOD mice (Sjögren's syndrome model); format: in vivo; details: SC 1.0 mg Rapa/kg every other day for 2 weeks
Procedure: FIGS. 23A-23C: FAF-Rapa reduces lymphocytic infiltration in the LG of male NOD mice, FIG. 23A: identity, purity and fluorescence of FAF, FAF-Rapa and rhodamine-labeled FAF-Rapa (Rho-FAF-Rapa) were analyzed by Comassie blue staining and fluorescence imaging of SDS-PAGE. FIG. 23B: One LG from each mouse was collected at the conclusion of the study. Sections from 25th, 50th and 75th percentile sections from each LG were quantified by a blinded observer to determine the average percentage area of infiltrate per gland. Glands from 4 treatment groups (n=15) were compared. Inflamed LG show areas of purple nuclear staining, which indicate foci of infiltrating lymphocytes (outlined in blue). Severe lymphocytic infiltration was reduced by FAF-Rapa (middle panel). Scale bar represents 200 μm. FIG. 23C: The percent area of infiltration was calculated using ImageJ (mean±SD). A Kruskal-Wallis non-parametric test was used to compare groups.
SS is a chronic autoimmune disease that affects about 4 million people in the US. Lymphocytic infiltration and inflammation in the exocrine glands, mainly lacrimal gland (LG) and salivary gland causes severe forms of dry eyes and dry mouth. […] Following this, the LG from all mice were sectioned, stained and lymphocytic infiltration was quantified.

MDA-MB-468 cells = assay: Split luciferase reporter for cytosolic Rapa; format: cell-based
Text: FIGS. 22A-22B: FAF delays the access of Rapa to the cytosol in a manner consistent with macropinocytosis. FIG. 22A: MDA-VB-468 cells were transfected with a split luciferase reporter that enables the specific detection of Rapa within the cytosol. […] Free Rapa luminescence kinetics were unaffected by amiloride. (Mean±95% CI, n=6).
To understand drug release, cells were engineered to express a luciferase reporter for cytosolic Rapamycin. […] This is evidence that FAF dominates the intracellular delivery of rapalogues.

MDA-MB-468 cell line = assay: Cellular uptake of FAF; format: cell-based; details: concentrations up to 100 μM

With “4PA: 4 Pin1 domains linked by ELP A24, SEQ ID NO: 15” the “Transition temperature at 25 μM” value [1] was 52.8 °C and the “Encapsulation ratio, CATRA/C4PA” value [2] was 2.7.

For `CO[C@H]1C[C@@H]2CC[C@@H](C)[C@@](O)(O2)C(=O)C(=O)N2CCCC[C@H]2C(=O)O[C@H]([C@H](C)C[C@@H]2CC[C@@H](OCCO)[C@H](OC)C2)CC(=O)[C@H](C)/C=C(\C)[C@@H](O)[C@@H](OC)C(=O)[C@H](C)C[C@H](C)/C=C/C=C/C=C/1C` [Eve, Everolimus], the “tumor growth compared to PBS treated mice” value (BT-474 orthotopic tumors) is listed as “not statistically significant”, the “patients with adverse events necessitating discontinuation of treatment” value [3] is listed as 10 % of patients and the “patients with adverse events necessitating dose reduction” value [3] is listed as 75 % of patients.

With `CO[C@H]1C[C@@H]2CC[C@@H](C)[C@@](O)(O2)C(=O)C(=O)N2CCCC[C@H]2C(=O)O[C@H]([C@H](C)C[C@@H]2CC[C@@H](O)[C@H](OC)C2)CC(=O)[C@H](C)/C=C(\C)[C@@H](O)[C@@H](OC)C(=O)[C@H](C)C[C@H](C)/C=C/C=C/C=C/1C` [Rapa, Rapamycin] the “suppression of lymphocytic infiltration compared to vehicle” value (male NOD mice) was 2.7 fold.

For “FAF: FKBP fused to each terminus of ELP A192, SEQ ID NO: 25”, the “Transition temperature at 25 μM” value [1] was 55.1 °C, the “delay of cytosolic access of Rapa versus free drug” value (MDA-MB-468 cells) was “about a half-hour” and the “effect of amiloride on cytosolic detection of Rapa” value (MDA-MB-468 cells; macropinocytosis inhibitor amiloride added) was “completely suppressed”. For the same compound, the “saturation of cellular uptake” value (MDA-MB-468 cell line) was “no dose-dependent saturation”, the MAT (SC, Non-compartment) was 9.6 h and the elimination half-life (mouse, in vivo, iv) was “about 7 hrs”. It also gave an MRT (mouse, in vivo, sc) of 20.3 h and a Tmax (mouse, in vivo, sc) of 12 h.
